Assay [1] concerns the target FcgammaRIIIA (CD16a), F allotype (human) (UniProt P08637). The experiment in a line: SPR equilibrium fit; reference WT IgG1.
The target in assay [2] is FcgammaRIIB (CD32b) (human) (UniProt P31994). Briefly: SPR equilibrium fit; reference WT IgG1.
Sequence of FcgammaRIIB (CD32b) (human) (P31994 43-217 limits assumed): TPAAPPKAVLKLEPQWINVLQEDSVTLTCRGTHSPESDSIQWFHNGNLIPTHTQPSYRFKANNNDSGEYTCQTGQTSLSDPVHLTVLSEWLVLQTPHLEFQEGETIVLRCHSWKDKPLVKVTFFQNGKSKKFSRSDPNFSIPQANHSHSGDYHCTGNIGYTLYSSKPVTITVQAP

Sequence of FcgammaRIIIA (CD16a), F allotype (human) (P08637 17-208 limits assumed): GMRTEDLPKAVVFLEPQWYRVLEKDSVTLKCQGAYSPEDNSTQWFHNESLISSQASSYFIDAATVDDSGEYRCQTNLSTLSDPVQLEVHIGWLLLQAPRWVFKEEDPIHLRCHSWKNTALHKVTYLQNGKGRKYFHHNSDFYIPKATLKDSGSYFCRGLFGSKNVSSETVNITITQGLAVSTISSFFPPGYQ

With “Control 2 (T366S_L368A_Y407V/T366W) (antibody)”, the Ratio WT/Variant of kD in assay [1] came out at 1.1; in assay [2], 1.13.

As for “Control 1 (K409D_K392D/D399K_D356K) (antibody)”, the Ratio WT/Variant of kD in assay [1] was 1.28; in assay [2], 1.68.
